From IntAct's records for PubMed 29039417

B1: BBSome complex member BBS5 (Homo sapiens), Q8N3I7 (parent)
chain: MSVLDALWEDRDVRFDLSAQQMKTRPGEVLIDCLDSIEDTKGNNGDRGRLLVTNLRILWHSLALSRVNVSVGYNCILNITTRTANSKLRGQTEALYILTKCNSTRFEFIFTNLVPGSPRLFTSVMAVHRAYETSKMYRDFKLRSALIQNKQLRLLPQEHVYDKINGVWNLSSDQGNLGTFFITNVRIVWHANMNDSFNVSIPYLQIRSIKIRDSKFGLALVIESSQQSGGYVLGFKIDPVEKLQESVKEINSLHKVYSASPIFGVDYEMEEKPQPLEALTVEQIQDDVEIDSDGHTDAFVAYFADGNKQQDREPVFSEELGLAIEKLKDGFTLQGLWEVMS
partner: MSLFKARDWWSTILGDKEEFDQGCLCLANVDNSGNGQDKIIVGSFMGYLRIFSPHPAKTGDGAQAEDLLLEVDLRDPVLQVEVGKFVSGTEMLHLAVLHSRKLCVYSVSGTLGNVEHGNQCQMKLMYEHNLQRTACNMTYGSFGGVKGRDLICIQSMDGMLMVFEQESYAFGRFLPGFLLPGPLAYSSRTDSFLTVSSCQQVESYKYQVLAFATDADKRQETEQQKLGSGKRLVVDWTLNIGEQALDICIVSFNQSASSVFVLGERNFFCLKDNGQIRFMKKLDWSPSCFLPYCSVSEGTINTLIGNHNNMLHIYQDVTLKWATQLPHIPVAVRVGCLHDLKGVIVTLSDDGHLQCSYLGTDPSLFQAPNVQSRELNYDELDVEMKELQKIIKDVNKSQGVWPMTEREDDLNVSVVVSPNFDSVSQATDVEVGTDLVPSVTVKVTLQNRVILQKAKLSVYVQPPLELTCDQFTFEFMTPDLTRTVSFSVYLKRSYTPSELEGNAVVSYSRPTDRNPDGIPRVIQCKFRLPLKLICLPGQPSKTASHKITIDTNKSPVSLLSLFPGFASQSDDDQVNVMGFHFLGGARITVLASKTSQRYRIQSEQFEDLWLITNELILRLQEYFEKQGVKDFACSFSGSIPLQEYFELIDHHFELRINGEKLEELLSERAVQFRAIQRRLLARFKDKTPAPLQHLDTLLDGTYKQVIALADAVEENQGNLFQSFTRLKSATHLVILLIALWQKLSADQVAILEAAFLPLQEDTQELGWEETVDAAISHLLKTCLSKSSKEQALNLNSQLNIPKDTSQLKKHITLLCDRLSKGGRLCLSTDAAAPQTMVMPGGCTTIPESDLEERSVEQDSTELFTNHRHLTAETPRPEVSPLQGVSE

Variants of: B1
Settings: with pthb1_human BBS9, Q3SYG4

Effect of a mutation on the interaction, with no effect:
L30E
L30K
I31E
I31K
D32A
D32E
D32K
C33A
C33E
C33K
L34A
L34E
L34K
D35A
D35E
D35K
S36A
S36E
S36K
I37A
I37E
I37K
E38A
E38K
D39A
D39E
D39K
T40A
T40E
T40K
K41A
K41E
G42A
G42K
N43A
N43E
N43K
N44A
N44E
N44K
G45A
G45E
G45K
D46A
D46E
D46K
R47A
R47E
R47K
G48A
G48E
G48K
R49A
R49E
R49K
L50E
L50K
L51A
L51E
L51K
V52A
V52E
T53A
T53E
T53K
N54A
N54K
L55K
I57A
I57E
I57K
L58A
L58E
W59A
W59E
W59K
H60A
H60E
H60K
S61A
S61E
S61K
L62A
L62E
L62K
A63E
A63K
L64A
L64E
L64K
S65A
S65E
S65K
R66A
R66E
R66K
V67A
V67E
V67K
N68E
N68K
V69A
V69E
V69K
S70A
S70E
S70K
V71A
V71E
V71K
G72A
G72E
G72K
Y73A
Y73E
Y73K
N74A
N74E
N74K
C75A
C75E
C75K
I76A
I76K
L77A
L77E
L77K
N78A
N78E
N78K
I79A
I79E
I79K
T80E
T80K
T81A
T81E
T81K
R82A
R82E
R82K
T83E
T83K
A84E
A84K
N85A
N85E
N85K
S86A
S86E

Effect of a mutation on the interaction, disrupting interaction strength:
L30P
I31A
D32G
G42E
D46N
G48S
L50A
V52K
N54E
L55A
L55E
L55F
R56A
R56E
R56G
R56K
L58K
S61F
N68A
G72S
I76E
I76T
T80A
T80I
T83A
